Laboratory results: patent US20180016327A1 (Chugai, published 2018)
Changes are numbered by the printed parent chain.

B1: CFP0018 (antibody, V domains shown)
VH: QVQLVQSGAEVKKPGSSVKVSCKASGGTFSSYAISWVRQAPGQGLEWMGGIIPIFGTANYAQKFQGRVTITADESTSTAYMELSSLRSEDTAVYYCARQLYGYYELDIWGQGTLVTVSS
VL: DIQMTQSPSSLSASVGDRVTITCRASQSISDDLAWYQQKPGKAPKLLIYEASSLQSGVPSRFSGSGSGTDFTLTISSLQPEDFATYYCQQYNSYPLTFGQGTKVEIK
notes: IgG format
B2: CFP0018 18L 92D (antibody, V domains shown)
VH: B1 VH
VL: B1 VL with N92D
B3: CFP0018 18L 32Q (antibody, V domains shown)
VH: B1 VH
VL: B1 VL with D32Q
B4: CFP0018 18L 30F (antibody, V domains shown)
VH: B1 VH
VL: B1 VL with S30F
B5: CFP0018 18L 31N (antibody, V domains shown)
VH: B1 VH
VL: B1 VL with D31N
B6: CFP0018 18L 30D (antibody, V domains shown)
VH: B1 VH
VL: B1 VL with S30D
B7: CFP0018 18L 30Y (antibody, V domains shown)
VH: B1 VH
VL: B1 VL with S30Y
B8: CFP0018 18L 94F (antibody, V domains shown)
VH: B1 VH
VL: B1 VL with Y94F
B9: CFP0017 17L 30D (antibody, V domains shown)
VH: B1 VH with Q99G, L100G, Y101W, G102W, Y103G, Y104G, E105A, I108Y
VL: B1 VL with S30D, E50H, Y91S, N92D
B10: CFP0018 18L 30Q (antibody, V domains shown)
VH: B1 VH
VL: B1 VL with S30Q
B11: CFP0018 18L 93R (antibody, V domains shown)
VH: B1 VH
VL: B1 VL with S93R
B12: CFP0017 17L 92N (antibody, V domains shown)
VH: B1 VH with Q99G, L100G, Y101W, G102W, Y103G, Y104G, E105A, I108Y
VL: B1 VL with S30E, E50H, Y91S
B13: CFP0018 18L 53N (antibody, V domains shown)
VH: B1 VH
VL: B1 VL with S53N
B14: CFP0018 18L 30P (antibody, V domains shown)
VH: B1 VH
VL: B1 VL with S30P
B15: CFP0017 17L 30A (antibody, V domains shown)
VH: B1 VH with Q99G, L100G, Y101W, G102W, Y103G, Y104G, E105A, I108Y
VL: B1 VL with S30A, E50H, Y91S, N92D
B16: CFP0017 17L 91H (antibody, V domains shown)
VH: B1 VH with Q99G, L100G, Y101W, G102W, Y103G, Y104G, E105A, I108Y
VL: B1 VL with S30E, E50H, Y91H, N92D
B17: CFP0018 18L 53H (antibody, V domains shown)
VH: B1 VH
VL: B1 VL with S53H
B18: CFP0018 18L 30A (antibody, V domains shown)
VH: B1 VH
VL: B1 VL with S30A
B19: CFP0018 18L 93D (antibody, V domains shown)
VH: B1 VH
VL: B1 VL with S93D
B20: CFP0018 18L 92S (antibody, V domains shown)
VH: B1 VH
VL: B1 VL with N92S
B21: CFP0018 18L 32N (antibody, V domains shown)
VH: B1 VH
VL: B1 VL with D32N
B22: CFP0018 18L 92P (antibody, V domains shown)
VH: B1 VH
VL: B1 VL with N92P
B23: CFP0018 18L 92E (antibody, V domains shown)
VH: B1 VH
VL: B1 VL with N92E
B24: CFP0018 18L 30N (antibody, V domains shown)
VH: B1 VH
VL: B1 VL with S30N
B25: CFP0018 18L 93N (antibody, V domains shown)
VH: B1 VH
VL: B1 VL with S93N
B26: CFP0018 18L 30T (antibody, V domains shown)
VH: B1 VH
VL: B1 VL with S30T
B27: CFP0017 17L 50A (antibody, V domains shown)
VH: B1 VH with Q99G, L100G, Y101W, G102W, Y103G, Y104G, E105A, I108Y
VL: B1 VL with S30E, E50A, Y91S, N92D
B28: CFP0018 18L 92T (antibody, V domains shown)
VH: B1 VH
VL: B1 VL with N92T
B29: CFP0017 17L 91Y (antibody, V domains shown)
VH: B1 VH with Q99G, L100G, Y101W, G102W, Y103G, Y104G, E105A, I108Y
VL: B1 VL with S30E, E50H, N92D
B30: CFP0018 18L 94W (antibody, V domains shown)
VH: B1 VH
VL: B1 VL with Y94W
B31: CFP0018 18L 30H (antibody, V domains shown)
VH: B1 VH
VL: B1 VL with S30H
B32: CFP0018 18L 53T (antibody, V domains shown)
VH: B1 VH
VL: B1 VL with S53T
B33: CFP0017 (antibody, V domains shown)
VH: B1 VH with Q99G, L100G, Y101W, G102W, Y103G, Y104G, E105A, I108Y
VL: B1 VL with S30E, E50H, Y91S, N92D
notes: IgG format
B34: CFP0018 18L 93G (antibody, V domains shown)
VH: B1 VH
VL: B1 VL with S93G
B35: CFP0018 18L 30E (antibody, V domains shown)
VH: B1 VH
VL: B1 VL with S30E
B36: CFP0018 18L 50D (antibody, V domains shown)
VH: B1 VH
VL: B1 VL with E50D
B37: CFP0017 17L 91R (antibody, V domains shown)
VH: B1 VH with Q99G, L100G, Y101W, G102W, Y103G, Y104G, E105A, I108Y
VL: B1 VL with S30E, E50H, Y91R, N92D
B38: CFP0018 18L 92Q (antibody, V domains shown)
VH: B1 VH
VL: B1 VL with N92Q
B39: CFP0018 18L 94H (antibody, V domains shown)
VH: B1 VH
VL: B1 VL with Y94H
B40: CFP0017 17L 50E (antibody, V domains shown)
VH: B1 VH with Q99G, L100G, Y101W, G102W, Y103G, Y104G, E105A, I108Y
VL: B1 VL with S30E, Y91S, N92D
B41: CFP0017 17L 30S (antibody, V domains shown)
VH: B1 VH with Q99G, L100G, Y101W, G102W, Y103G, Y104G, E105A, I108Y
VL: B1 VL with E50H, Y91S, N92D
B42: CFP0017 17L 30H (antibody, V domains shown)
VH: B1 VH with Q99G, L100G, Y101W, G102W, Y103G, Y104G, E105A, I108Y
VL: B1 VL with S30H, E50H, Y91S, N92D
B43: CFP0017 17L 92S (antibody, V domains shown)
VH: B1 VH with Q99G, L100G, Y101W, G102W, Y103G, Y104G, E105A, I108Y
VL: B1 VL with S30E, E50H, Y91S, N92S

target: T1, human C5 (human, UniProt P01031 19-673; P01031 678-1676, Beta and alpha chains are disulfide-linked and the protein is glycosylated.); assay: Biacore, captured antibody, pH 7.4, 37 C;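 further: biacore binding response of anti-C5 antibody light chain variants captured on chip with human C5 injected, ACES running buffer containing 1.2 mM CaCl₂, parent light chain antibody set to 100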
T1 construct: Either in-house recombinant C5 or plasma derived C5 (CALBIOCHEM) was used; also called recombinant human C5; plasma derived human C5
Protocol: The light chain variants were tested for the binding affinity to C5 at pH 7.4 and at 37 degrees C. using Biacore T200 instrument (GE Healthcare) or Biacore 4000 instrument (GE Healthcare). […] Anti-C5 antibodies were captured on an immobilized molecule, and then human C5 was injected. The running buffer used was pH 7.4 ACES Buffer containing 1.2 mM Ca (20 mM ACES, 150 mM NaCl, 1.2 mM CaCl₂, 0.05% Tween 20). A value, % binding, was determined by normalizing binding response with that of antibody comprising parent light chain as 100.

Binder | % binding (parent = 100) [%]
B1 | 100
B2 | 31.7
B3 | 21.9
B4 | 85.2
B5 | 130
B6 | 17
B7 | 82.4
B8 | 28.6
B9 | 89.4
B10 | 130
B11 | 136
B12 | 36.4
B13 | 91.2
B14 | 111
B15 | 79.9
B16 | 21.8
B17 | 94.4
B18 | 21.2
B19 | 23.8
B20 | 104
B21 | 527
B22 | 64.5

Binder | % binding (parent = 100) [%]
B23 | 40.9
B24 | 201
B25 | 107
B26 | 90.7
B27 | 3.3
B28 | 95.1
B29 | 0.3
B30 | 33.7
B31 | 87.2
B32 | 44.5
B33 | 100
B34 | 79.1
B35 | 20.8
B36 | 22.2
B37 | -4
B38 | 125
B39 | 17.6
B40 | 1
B41 | 79.1
B42 | 52.1
B43 | 79
